Measured values published in US20200009222A1, “[…] ACTIVE COMPLEXES” (HAMLET PHARMA AB, priority 2016, published 2020).

Tests used:
[1] = tested on: Protein kinase C (PKC) isoforms; assay: Kinex KAM-850 phospho-antibody array; format: cell-based, human; settings: 1 hour, 21 uM
Procedure: The in vivo kinase activity assay was performed using Kinex™ KAM-850 Antibody Microarray Services (Kinexus, Canada). Untreated and HAMLET-treated samples were performed in duplicates. Raw quantification data and basic analyses for individual samples were provided. Reference data, consolidated data of over 200 samples was also provided as reference, confirming the validity of the assay performed. Targets with percent fold change over control>10 were significant. The targets were identified in the human profiling human activity-based phosphorylation network (Molecular Systems Biology 9:655).

MB49 bladder tumor = assay: Real-time in vivo fluorescence imaging and tissue uptake of labeled complex; settings: tumor-bearing mice; intravesical; 24 hours
Procedure: HAMLET or peptides were labeled using VivoTag 680XL Protein Labeling Kit (Perkin Elmer). Mice were anaesthetized using Isofluorane and 100 ul solution of labeled HAMLET or peptide was instilled in bladders of tumor bearing or healthy control mice.
Hair was removed from the ventral sides of anesthetized mice. Mice were imaged at various time points using an IVIS Spectrum imaging system (Perkin Elmer). Signals from HAMLET or peptides were acquired at fluorescent settings with 680 nm excitation. For tissue specific uptake, Alexa-568 labeled peptide was instilled in bladders of tumor bearing or healthy control mice. Mice were sacrificed after 24 hours of treatment and bladder sections were imaged using Zeiss AX10 fluorescence microscope.
The retention of alpha-peptide oleate complexes by the tumor was visualized, by in vivo imaging in mice with palpable tumors. VivoTag 680XL labeled alpha1 peptide-oleate complexes were instilled intra-vesically on day 8 after the inoculation of MB49 cells and the fluorescence signal was monitored longitudinally, using the IVIS spectrum in vivo imaging system.
To verify that the alpha-peptides are retained by the bladder tumor, Alexa Fluor-568 labeled alpha1 peptide-oleate complexes were instilled into the bladders of tumor bearing mice (day 8, palpable tumors).

bladder cancer = settings: prior clinical study; cited from earlier work
[2] = tested on: adherent lung carcinoma cells (A549); assay: Live cell imaging of Alexa-Fluor labeled HAMLET uptake; format: cell-based, human; settings: 35 μM, 1 hour
Procedure: For uptake experiments lung carcinoma cells were treated with Alexa-488 or 568 labeled HAMLET, washed and visualized under confocal microscope live. Localization of HAMLET in lysosomes was detected by pre-labelling the cells with lysotracker (LysoTracker Green DND-26, Thermo Fisher). For peptide or peptide-oleate complexes uptake, lung carcinoma cells were treated with individual biotinylated peptide alone or mixed with sodium oleate. Cells were fixed (2% PFA, 10 min), permeabilized (0.25% Triton X-100) and blocked with FCS (10% in PBS). The biotinylated peptides were detected with Alexa-488 or 568 labeled streptavidin conjugate (1:200, 5% FCS/PBS, 1 hour). The accumulation of peptide or peptide oleate complexes in lysosomes was investigated by treatment of lung carcinoma cells with Alexa-568 labeled peptide (20%) or peptide-oleate complexes for 1 hour. Cells were counter stained with lysosomal marker, Lysotracker. Slides were examined using LSM 510 META or LSM 800 laser scanning confocal microscope (Carl Zeiss).
During live cell imaging of Alexa-Fluor labeled HAMLET (35 μM, 1 hour) and adherent lung carcinoma cells (A549), two distinct cellular staining patterns (FIG. 1a) were detected. […] Nuclear speckles reside in the inter-chromatin space of eukaryotic nuclei and serve as important nodes in the splicing of pre-mRNA and transport of spliced RNA. […]

SC-35 = SC-35 phosphorylation, Western blot analysis and flow cytometry; format: cell-based
Procedure: Cells were grown on 6-well plates (3×10^5/well, TPP) overnight. Cells treated with HAMLET were lysed with mammalian NP-40 lysis buffer supplemented with protease and phosphatase inhibitors (both from Roche Diagnostics). […] The anti-GAPDH (1:1,000, sc-25778, Santa Cruz) and anti-Histone H3 (ab1791, Abcam) were used as loading controls. Primary antibodies followed by HRP-conjugated secondary anti-rabbit or anti-mouse antibodies (1:4000, 5% NFDM, Cell Signaling) and visualized using ECL Plus detection reagent (GE Health Care). Band intensities were quantified using the ImageJ software 1.46r (NIH).

histone H3 = assay: ProtoArray Human Protein Microarray interaction profiling; format: binding; settings: screen of 8000 human proteins
Procedure: (§1) ProtoArray® Human Protein Microarray version 4.0 (Invitrogen) was performed as previously described^20, which consists of approximately 8,000 human proteins. AlexaFluor®568-labeled HAMLET was added to protein arrays at two concentrations (5 and 50 ng/μl) in duplicate, and the fluorescence was measured by using GenePix 6.0. Negative control array was incubated with buffer alone and scanned at a wavelength of 532 nm. […] The interactions were quantified as fold change (FCs) over the average negative control value.

PKC isoforms = assay: as above; format: binding; settings: screen of 8000 human proteins
Procedure: as §1

B1: HAMLET (protein)
chain: KQFTKCELSQLLKDIDGYGGIALPELICTMFHTSGYDTQAIVENNESTEYGLFQISNKLWCKSSQVPQSRNICDISCDKFLDDDITDDIMCAKKILDIKGIDYWLAHKALCTEKLEQWLCEKL
PKC isoforms with inhibited phosphorylation [1]: 5/6 | Fluorescence signal of VivoTag 680XL labeled complex, retention (MB49 bladder tumor): retention | Toxic effects (bladder cancer): not detected | Tumor response to intravesical instillations (bladder cancer): massive tumor cell exfoliation | Population I cells (membrane blebbing, diffuse cytoplasmic staining, nuclear speckle accumulation) [2]: 51% | Population II cells (exclusively cytoplasmic, lysosomal uptake) [2]: 47% | SC-35 phosphorylation (SC-35): inhibited | Affinity for histone H3 in proteomic screen (histone H3): confirmed | Binding to PKC isoforms in proteomic screen (PKC isoforms): identified as HAMLET targets
